Experimental data taken from the supplement of paper PMC12042874.
± gives the uncertainty stated by the source.

Test: amyloid nucleation score (Sup35N fusion, yeast selection) (log enrichment); library NNK2; higher = more nucleation; inactive = no reads after selection
Procedure, shortened: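 Yeast lacking psi expressed peptides of 20 random codons fused to Sup35N, received 100 μM copper sulfate for 24 hours, and were then grown for 7 days at 30°C on medium lacking adenine and uracil. Illumina sequencing of input and output plasmid inserts provided the reads. Nucleation scores are DiMSum log enrichments of output over input, centred on the mode of non-aggregating sequences. Any sequence with under 100 input reads was excluded.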

Substance	amyloid nucleation score
LLLVPIPH	1.07 ± 0.38
LLNLTSLLRKCLFKNRRKFI	-0.972 ± 0.36
LLPMGYAYISYSLLGNYMSG	-1.37 ± 0.48
LLPSHISASNHIWWLKTS	0.307 ± 0.31
LLPWGVTMVERLFIPIRCSD	0.308 ± 0.35
LLSGEDQLMKYLKSKNSCLW	-0.67 ± 0.79
LLSKGLA	-0.682 ± 0.32
LLSQKRGCHVSGHIGVEA	-0.218 ± 0.31
LLSTDESCSTLNIYCIYTPR	8.139 ± 0.045
LLTAFTTYYLIYHSFSRYLA	-1.47 ± 1.1
LLTCEASRTPARSQLLASEG	0.851 ± 0.4
LLTNAVRGLG	0.302 ± 0.56
LLVKRCSAKPNLRRLLKLMC	-0.097 ± 0.76
LLVSSVSMTWHGKLSHTYFK	4.62 ± 0.059
LLVVCSNLQNKVCRRNPEVF	-1.79 ± 0.49
LLWCIERG	0.946 ± 0.51
LLWLPR	0.376 ± 0.31
LLWWMCQYEIFWDKMLYLES	0.074 ± 1
LLYCYSLFVVSFDYTFHQRF	6.15 ± 0.062
LMAKQFIPGTYTLRGSSFHG	-0.677 ± 0.3
LMGGYLEYGSFVTT	0.453 ± 0.51
LMMKEPDPSVC	-0.101 ± 0.42

Substance	amyloid nucleation score
LMMTSVYLKLGWSFFIFRHR	-0.238 ± 1.1
LMSCRILRSAKRGHSNVKRF	0.254 ± 0.46
LMTSDAGSLAIVVVNCNFGT	7.942 ± 0.023
LMVTKLSCSCFCLFSVPRSQ	0.783 ± 0.74
LMWADLLLKKLILFA	-0.334 ± 0.64
LNAYGGRCSL	0.317 ± 0.5
LNGCSRILAFYMGCSCGGLM	-1.02 ± 0.76
LNGGKLWNHRDLWDRTGQVY	-0.266 ± 1
LNGSADTLD	-0.755 ± 0.41
LNHPTGCEYRWEARPNLCEK	-0.553 ± 0.63
LNIIMGSSDFCPESFYKFW	0.266 ± 1
LNKNLLEKCLYRDLLLSVFW	-2.32 ± 1.1
LNLMVTW	-0.926 ± 0.78
LNSANSFWCVRRYCGTAQMQ	-1.29 ± 1.1
LNTNPARYLPGMFNPRSKYL	-0.324 ± 1.1
LNTSSYFVIDDFWIIFRRCR	-0.814 ± 0.55
LNTVYCN	-1.09 ± 0.47
LNVGIFNLLTSSGFMGTIRR	4.39 ± 0.045
LNVKFK	-0.966 ± 1.1
LPCGVSLALHSWENYILNRP	0.55 ± 0.52
LPEIHLVTLC	-0.802 ± 0.49
LPGSRHNSRMSLRTQVVKVL	inactive

Substance	amyloid nucleation score
LPLLCFTDV	inactive
LPLLSWDPRNTSP	-0.218 ± 0.53
LQTFMNVGVFSGDKEYPCVF	0.662 ± 0.66
LQVLARVDRLSHPGR	0.636 ± 0.81
LQYCHRGC	-0.179 ± 0.44
LRFKNVWWPYGDYECATIIT	-0.468 ± 0.41
LRFSWDKISFVVRWLVVGLT	0.138 ± 0.19
LRFYPW	1.14 ± 0.36
LRGMTLFTPVTLTNSNCMVT	0.437 ± 0.18
LRGYCLRWRHWTVSILEFGV	-1.02 ± 0.76
LRHDR	0.43 ± 0.32
LRKHFWLGCEGAWLVFG	4.81 ± 0.08
LRKWILLLRDYDSLYFCLVA	-0.996 ± 0.36
LRLARKRVECFVLLADFNNR	0.306 ± 0.53
LRQCKGLRVLLPTGWSYKCE	1.67 ± 0.58
LRQGCFQTVKLDYRES	-0.032 ± 1.1
LRRSGRSENSRRMTWVWW	2.75 ± 0.17
LRSACCLIRSLNTAVCGWTK	4.22 ± 0.048
LRSFM	-0.591 ± 0.5
LRSKTDAPDGRFLAWSSMLC	0.458 ± 0.25
LRTGHPSI	inactive
LRVMSVRYSICVKYNVEFRL	1.18 ± 0.21

Substance	amyloid nucleation score
LRVVIHPVRNAGCLGKYGAN	-0.509 ± 0.33
LRVVSES	-0.599 ± 0.35
LRVYKTNTRQDLKLDTIMVG	-1.14 ± 0.34
LRYAYTFDVDLSTRQAAVSL	-0.573 ± 0.79
LSDGN	-1.04 ± 0.76
LSEFYRLRYYTGCQ	1.05 ± 0.31
LSFFGRDDLNRLHN	-1.41 ± 1.1
LSFGIVKLVMRAFTKKVTKG	0.388 ± 0.47
LSFRYVFIWIEVFPILGNMR	-1.77 ± 0.34
LSIFKGNTNLLLSYVPALNI	-1.29 ± 0.64
LSINLSDMNFVVHSCLGSLG	5.45 ± 0.077
LSINSFTKHQ	0.148 ± 1
LSKINVFWKSSTALQCLAPE	-0.322 ± 0.55
LSLFLLVICSSAFM	inactive
LSLLEGKVWLRWY	1.2 ± 0.61
LSLRDVGGLLSNLSIMCGKG	0.144 ± 0.25
LSMTKVLFCTFEITSLSLYQ	-0.245 ± 0.62
LSNAFRLNYTLLYAFISYFH	-1.22 ± 0.76
LSNWHHFSQSRDFDKSLWVS	-0.386 ± 0.42
LSNWSPFYMLHQSISFCSRS	3.08 ± 0.051
LSPVSWYLRITYNAYSMVGQ	1.91 ± 0.11
